± gives the uncertainty stated by the source.
B1: Friend leukemia integration 1 transcription factor, residues 116 to 197; numbered along this chain, Q01543 (parent)
chain: NMTTNERRVIVPADPTLWTQEHVRQWLEWAIKEYSLMEIDTSFFQNMDGKELCKMNKEDFLRATTLYNTEVLLSHLSYLRES

Variants of: B1
Assay: abundance fitness (aPCA) (normalised: wild type 0, dead -1); higher = more abundant; growth selection in yeast, the domain comes from the species named
Details: Homo sapiens

| Variant | abundance fitness |
| --- | --- |
| NMTTNEGRVIVPADPTLWTQEHVRQWLEWAIKEYSLMEIDTSFFQNMDGKELCKMNKEDFLRATTLYNTEVLLSHLSYLRES [R7G] | -0.135 ± 0.092 |
| NMTTNECRVIVPADPTLWTQEHVRQWLEWAIKEYSLMEIDTSFFQNMDGKELCKMNKEDFLRATTLYNTEVLLSHLSYLRES [R7C] | -0.06 ± 0.4 |
| NMTTNEHRVIVPADPTLWTQEHVRQWLEWAIKEYSLMEIDTSFFQNMDGKELCKMNKEDFLRATTLYNTEVLLSHLSYLRES [R7H] | -0.284 ± 0.24 |
| NMTTNEWRVIVPADPTLWTQEHVRQWLEWAIKEYSLMEIDTSFFQNMDGKELCKMNKEDFLRATTLYNTEVLLSHLSYLRES [R7W] | -0.179 ± 0.11 |
| NMTTNEERVIVPADPTLWTQEHVRQWLEWAIKEYSLMEIDTSFFQNMDGKELCKMNKEDFLRATTLYNTEVLLSHLSYLRES [R7E] | -0.044 ± 0.096 |
| NMTTNEVRVIVPADPTLWTQEHVRQWLEWAIKEYSLMEIDTSFFQNMDGKELCKMNKEDFLRATTLYNTEVLLSHLSYLRES [R7V] | -0.05 ± 0.11 |
| NMTTNEPRVIVPADPTLWTQEHVRQWLEWAIKEYSLMEIDTSFFQNMDGKELCKMNKEDFLRATTLYNTEVLLSHLSYLRES [R7P] | -0.045 ± 0.1 |
| NMTTNEKRVIVPADPTLWTQEHVRQWLEWAIKEYSLMEIDTSFFQNMDGKELCKMNKEDFLRATTLYNTEVLLSHLSYLRES [R7K] | -0.292 ± 0.29 |
| NMTTNEQRVIVPADPTLWTQEHVRQWLEWAIKEYSLMEIDTSFFQNMDGKELCKMNKEDFLRATTLYNTEVLLSHLSYLRES [R7Q] | -0.092 ± 0.14 |
| NMTTNEFRVIVPADPTLWTQEHVRQWLEWAIKEYSLMEIDTSFFQNMDGKELCKMNKEDFLRATTLYNTEVLLSHLSYLRES [R7F] | -0.179 ± 0.23 |
| NMTTNEIRVIVPADPTLWTQEHVRQWLEWAIKEYSLMEIDTSFFQNMDGKELCKMNKEDFLRATTLYNTEVLLSHLSYLRES [R7I] | -0.247 ± 0.28 |
| NMTTNEMRVIVPADPTLWTQEHVRQWLEWAIKEYSLMEIDTSFFQNMDGKELCKMNKEDFLRATTLYNTEVLLSHLSYLRES [R7M] | -0.089 ± 0.14 |
| NMTTNEARVIVPADPTLWTQEHVRQWLEWAIKEYSLMEIDTSFFQNMDGKELCKMNKEDFLRATTLYNTEVLLSHLSYLRES [R7A] | -0.243 ± 0.1 |
| NMTTNELRVIVPADPTLWTQEHVRQWLEWAIKEYSLMEIDTSFFQNMDGKELCKMNKEDFLRATTLYNTEVLLSHLSYLRES [R7L] | 0.155 ± 0.058 |
| NMTTNEYRVIVPADPTLWTQEHVRQWLEWAIKEYSLMEIDTSFFQNMDGKELCKMNKEDFLRATTLYNTEVLLSHLSYLRES [R7Y] | -0.125 ± 0.21 |
| NMTTNESRVIVPADPTLWTQEHVRQWLEWAIKEYSLMEIDTSFFQNMDGKELCKMNKEDFLRATTLYNTEVLLSHLSYLRES [R7S] | -0.156 ± 0.097 |
| NMTTNERRVCVPADPTLWTQEHVRQWLEWAIKEYSLMEIDTSFFQNMDGKELCKMNKEDFLRATTLYNTEVLLSHLSYLRES [I10C] | -0.258 ± 0.17 |

| Variant | abundance fitness |
| --- | --- |
| NMTTNERRVGVPADPTLWTQEHVRQWLEWAIKEYSLMEIDTSFFQNMDGKELCKMNKEDFLRATTLYNTEVLLSHLSYLRES [I10G] | 0.163 ± 0.082 |
| NMTTNERRVHVPADPTLWTQEHVRQWLEWAIKEYSLMEIDTSFFQNMDGKELCKMNKEDFLRATTLYNTEVLLSHLSYLRES [I10H] | -0.033 ± 0.16 |
| NMTTNERRVLVPADPTLWTQEHVRQWLEWAIKEYSLMEIDTSFFQNMDGKELCKMNKEDFLRATTLYNTEVLLSHLSYLRES [I10L] | -0.148 ± 0.069 |
| NMTTNERRVNVPADPTLWTQEHVRQWLEWAIKEYSLMEIDTSFFQNMDGKELCKMNKEDFLRATTLYNTEVLLSHLSYLRES [I10N] | 0.103 ± 0.23 |
| NMTTNERRVMVPADPTLWTQEHVRQWLEWAIKEYSLMEIDTSFFQNMDGKELCKMNKEDFLRATTLYNTEVLLSHLSYLRES [I10M] | -0.012 ± 0.1 |
| NMTTNERRVKVPADPTLWTQEHVRQWLEWAIKEYSLMEIDTSFFQNMDGKELCKMNKEDFLRATTLYNTEVLLSHLSYLRES [I10K] | 0.086 ± 0.12 |
| NMTTNERRVEVPADPTLWTQEHVRQWLEWAIKEYSLMEIDTSFFQNMDGKELCKMNKEDFLRATTLYNTEVLLSHLSYLRES [I10E] | 0.231 ± 0.08 |
| NMTTNERRVFVPADPTLWTQEHVRQWLEWAIKEYSLMEIDTSFFQNMDGKELCKMNKEDFLRATTLYNTEVLLSHLSYLRES [I10F] | -0.216 ± 0.16 |
| NMTTNERRVAVPADPTLWTQEHVRQWLEWAIKEYSLMEIDTSFFQNMDGKELCKMNKEDFLRATTLYNTEVLLSHLSYLRES [I10A] | 0.15 ± 0.11 |
| NMTTNERRVDVPADPTLWTQEHVRQWLEWAIKEYSLMEIDTSFFQNMDGKELCKMNKEDFLRATTLYNTEVLLSHLSYLRES [I10D] | 0.207 ± 0.16 |
| NMTTNERRVPVPADPTLWTQEHVRQWLEWAIKEYSLMEIDTSFFQNMDGKELCKMNKEDFLRATTLYNTEVLLSHLSYLRES [I10P] | 0.26 ± 0.088 |
| NMTTNTRRVIVPADPTLWTQEHVRQWLEWAIKEYSLMEIDTSFFQNMDGKELCKMNKEDFLRATTLYNTEVLLSHLSYLRES [E6T] | -0.013 ± 0.13 |
| NMTTNQRRVIVPADPTLWTQEHVRQWLEWAIKEYSLMEIDTSFFQNMDGKELCKMNKEDFLRATTLYNTEVLLSHLSYLRES [E6Q] | -0.174 ± 0.15 |
| NMTTNVRRVIVPADPTLWTQEHVRQWLEWAIKEYSLMEIDTSFFQNMDGKELCKMNKEDFLRATTLYNTEVLLSHLSYLRES [E6V] | -0.092 ± 0.082 |
| NMTTNSRRVIVPADPTLWTQEHVRQWLEWAIKEYSLMEIDTSFFQNMDGKELCKMNKEDFLRATTLYNTEVLLSHLSYLRES [E6S] | -0.028 ± 0.084 |
| NMTTNNRRVIVPADPTLWTQEHVRQWLEWAIKEYSLMEIDTSFFQNMDGKELCKMNKEDFLRATTLYNTEVLLSHLSYLRES [E6N] | -0.022 ± 0.17 |

Reference: the Human Domainome abundance scans (Beltran et al. 2025)
